Results: US20240270846A1 (published 2024)

biological target: T1, CD3 epsilon homodimer protein (UniProt P07766 23-126); experiment: SPR, CD3e homodimer on chip;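 also: surface plasmon resonance at 25 degrees C, antibodies flowed as analyte over CD3 epsilon homodimer amine-coupled to a CM4 chip, running buffer HBS-EP+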
T1 construct: also called CD3 (CD3 epsilon)
T1 sequence (P07766 23-126): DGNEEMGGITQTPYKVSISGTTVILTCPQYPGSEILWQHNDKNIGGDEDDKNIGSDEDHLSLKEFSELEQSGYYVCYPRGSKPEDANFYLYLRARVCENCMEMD
Method: An appropriate amount of CD3 epsilon homodimer protein was immobilized onto Sensor chip CM4 (GE Healthcare Japan Corp.) by the amine coupling method. Then, the antibody having an appropriate concentration was injected thereto as an analyte and allowed to interact with the CD3 epsilon homodimer protein on the sensor chip. Then, the sensor chip was regenerated by the injection of 10 mmol/L glycine-HCl (pH 1.5). The assay was conducted at 25 degrees C., and HBS-EP+(GE Healthcare Japan Corp.) was used as a running buffer. […] Each parameter was calculated using Biacore T200 Evaluation Software (GE Healthcare Japan Corp.).
Specifically, when the amount of the GLS3000-containing antibody bound was defined as X and the amount of the L chain one-amino acid altered form bound was defined as Y, a value of Z (ratio of amounts bound)=Y/X was used.

Binder	ratio of amounts bound (altered form / unaltered GLS3000 antibody)
GLS3000 L33A one-arm antibody (H chain CE115HA000) (antibody, human IgG1, kappa, L234A L235A, N297A, name in Kabat numbering, one-arm antibody) heavy: QVQLVESGGGVVQPGRSLRLSCAASGFTFSNAWMHWVRQAPGKGLEWVAQIKAKSNNYATYYAESVKGRFTISRDDSKNSLYLQMNSLKTEDTAVYYCRYVHYGAYYGVDAWGQGTTVTVSSASTKGPSVFPLAPSSKSTSGGTAALGCLVKDYFPEPVTVSWNSGALTSGVHTFPAVLQSSGLYSLSSVVTVPSSSLGTQTYICNVNHKPSNTKVDKKVEPKSCDKTHTCPPCPAPEAAGGPSVFLFPPKPKDTLMISRTPEVTCVVVDVSHEDPEVKFNWYVDGVEVHNAKTKPREEQYASTYRVVSVLTVLHQDWLNGKEYKCKVSNKALPAPIEKTISKAKGQPREPQVYTLPPSRCELTKNQVSLSCAVKGFYPSDIAVEWESNGQPENNYKTTPPVLDSDGSFFLVSKLTVDKSRWQQGNVFSCSVMHEALHNHYTQKSLSLSPDYKDDDDK EPKSSDKTHTCPPCPAPELLGGPSVFLFPPKPKDTLMISRTPEVTCVVVDVSHEDPEVKFNWYVDGVEVHNAKTKPREEQYNSTYRVVSVLTVLHQDWLNGKEYKCKVSNKALPAPIEKTISKAKGQPREPQVCTLPPSRDELTKNQVSLWCLVKGFYPSDIAVEWESNGQPENNYKTTPPVLDSDGSFFLYSKLTVDKSRWQQGNVFSCSVMHEALHNRYTQKSLSLSP light: DIVMTQSPLSLPVTPGEPASISCRSSQSLVHSNRNTYAHWYQQKPGQAPRLLIYKVSNRFSGVPDRFSGSGSGTDFTLKISRVEAEDVGVYYCGQGTQVPYTFGQGTKLEIKRTVAAPSVFIFPPSDEQLKSGTASVVCLLNNFYPREAKVQWKVDNALQSGNSQESVTEQDSKDSTYSLSSTLTLSKADYEKHKVYACEVTHQGLSSPVTKSFNRGEC	0.85
GLS3000 N28A one-arm antibody (H chain CE115HA000) (antibody, human IgG1, kappa, L234A L235A, N297A, name in Kabat numbering, one-arm antibody) heavy: QVQLVESGGGVVQPGRSLRLSCAASGFTFSNAWMHWVRQAPGKGLEWVAQIKAKSNNYATYYAESVKGRFTISRDDSKNSLYLQMNSLKTEDTAVYYCRYVHYGAYYGVDAWGQGTTVTVSSASTKGPSVFPLAPSSKSTSGGTAALGCLVKDYFPEPVTVSWNSGALTSGVHTFPAVLQSSGLYSLSSVVTVPSSSLGTQTYICNVNHKPSNTKVDKKVEPKSCDKTHTCPPCPAPEAAGGPSVFLFPPKPKDTLMISRTPEVTCVVVDVSHEDPEVKFNWYVDGVEVHNAKTKPREEQYASTYRVVSVLTVLHQDWLNGKEYKCKVSNKALPAPIEKTISKAKGQPREPQVYTLPPSRCELTKNQVSLSCAVKGFYPSDIAVEWESNGQPENNYKTTPPVLDSDGSFFLVSKLTVDKSRWQQGNVFSCSVMHEALHNHYTQKSLSLSPDYKDDDDK EPKSSDKTHTCPPCPAPELLGGPSVFLFPPKPKDTLMISRTPEVTCVVVDVSHEDPEVKFNWYVDGVEVHNAKTKPREEQYNSTYRVVSVLTVLHQDWLNGKEYKCKVSNKALPAPIEKTISKAKGQPREPQVCTLPPSRDELTKNQVSLWCLVKGFYPSDIAVEWESNGQPENNYKTTPPVLDSDGSFFLYSKLTVDKSRWQQGNVFSCSVMHEALHNRYTQKSLSLSP light: DIVMTQSPLSLPVTPGEPASISCRSSQSLVHSARNTYLHWYQQKPGQAPRLLIYKVSNRFSGVPDRFSGSGSGTDFTLKISRVEAEDVGVYYCGQGTQVPYTFGQGTKLEIKRTVAAPSVFIFPPSDEQLKSGTASVVCLLNNFYPREAKVQWKVDNALQSGNSQESVTEQDSKDSTYSLSSTLTLSKADYEKHKVYACEVTHQGLSSPVTKSFNRGEC	0.25
GLS3000 N28E one-arm antibody (H chain CE115HA000) (antibody, human IgG1, kappa, L234A L235A, N297A, name in Kabat numbering, one-arm antibody) heavy: QVQLVESGGGVVQPGRSLRLSCAASGFTFSNAWMHWVRQAPGKGLEWVAQIKAKSNNYATYYAESVKGRFTISRDDSKNSLYLQMNSLKTEDTAVYYCRYVHYGAYYGVDAWGQGTTVTVSSASTKGPSVFPLAPSSKSTSGGTAALGCLVKDYFPEPVTVSWNSGALTSGVHTFPAVLQSSGLYSLSSVVTVPSSSLGTQTYICNVNHKPSNTKVDKKVEPKSCDKTHTCPPCPAPEAAGGPSVFLFPPKPKDTLMISRTPEVTCVVVDVSHEDPEVKFNWYVDGVEVHNAKTKPREEQYASTYRVVSVLTVLHQDWLNGKEYKCKVSNKALPAPIEKTISKAKGQPREPQVYTLPPSRCELTKNQVSLSCAVKGFYPSDIAVEWESNGQPENNYKTTPPVLDSDGSFFLVSKLTVDKSRWQQGNVFSCSVMHEALHNHYTQKSLSLSPDYKDDDDK EPKSSDKTHTCPPCPAPELLGGPSVFLFPPKPKDTLMISRTPEVTCVVVDVSHEDPEVKFNWYVDGVEVHNAKTKPREEQYNSTYRVVSVLTVLHQDWLNGKEYKCKVSNKALPAPIEKTISKAKGQPREPQVCTLPPSRDELTKNQVSLWCLVKGFYPSDIAVEWESNGQPENNYKTTPPVLDSDGSFFLYSKLTVDKSRWQQGNVFSCSVMHEALHNRYTQKSLSLSP light: DIVMTQSPLSLPVTPGEPASISCRSSQSLVHSERNTYLHWYQQKPGQAPRLLIYKVSNRFSGVPDRFSGSGSGTDFTLKISRVEAEDVGVYYCGQGTQVPYTFGQGTKLEIKRTVAAPSVFIFPPSDEQLKSGTASVVCLLNNFYPREAKVQWKVDNALQSGNSQESVTEQDSKDSTYSLSSTLTLSKADYEKHKVYACEVTHQGLSSPVTKSFNRGEC	0.4
GLS3000 L33D one-arm antibody (H chain CE115HA000) (antibody, human IgG1, kappa, L234A L235A, N297A, name in Kabat numbering, one-arm antibody) heavy: QVQLVESGGGVVQPGRSLRLSCAASGFTFSNAWMHWVRQAPGKGLEWVAQIKAKSNNYATYYAESVKGRFTISRDDSKNSLYLQMNSLKTEDTAVYYCRYVHYGAYYGVDAWGQGTTVTVSSASTKGPSVFPLAPSSKSTSGGTAALGCLVKDYFPEPVTVSWNSGALTSGVHTFPAVLQSSGLYSLSSVVTVPSSSLGTQTYICNVNHKPSNTKVDKKVEPKSCDKTHTCPPCPAPEAAGGPSVFLFPPKPKDTLMISRTPEVTCVVVDVSHEDPEVKFNWYVDGVEVHNAKTKPREEQYASTYRVVSVLTVLHQDWLNGKEYKCKVSNKALPAPIEKTISKAKGQPREPQVYTLPPSRCELTKNQVSLSCAVKGFYPSDIAVEWESNGQPENNYKTTPPVLDSDGSFFLVSKLTVDKSRWQQGNVFSCSVMHEALHNHYTQKSLSLSPDYKDDDDK EPKSSDKTHTCPPCPAPELLGGPSVFLFPPKPKDTLMISRTPEVTCVVVDVSHEDPEVKFNWYVDGVEVHNAKTKPREEQYNSTYRVVSVLTVLHQDWLNGKEYKCKVSNKALPAPIEKTISKAKGQPREPQVCTLPPSRDELTKNQVSLWCLVKGFYPSDIAVEWESNGQPENNYKTTPPVLDSDGSFFLYSKLTVDKSRWQQGNVFSCSVMHEALHNRYTQKSLSLSP light: DIVMTQSPLSLPVTPGEPASISCRSSQSLVHSNRNTYDHWYQQKPGQAPRLLIYKVSNRFSGVPDRFSGSGSGTDFTLKISRVEAEDVGVYYCGQGTQVPYTFGQGTKLEIKRTVAAPSVFIFPPSDEQLKSGTASVVCLLNNFYPREAKVQWKVDNALQSGNSQESVTEQDSKDSTYSLSSTLTLSKADYEKHKVYACEVTHQGLSSPVTKSFNRGEC	0.17
GLS3000 N28F one-arm antibody (H chain CE115HA000) (antibody, human IgG1, kappa, L234A L235A, N297A, name in Kabat numbering, one-arm antibody) heavy: QVQLVESGGGVVQPGRSLRLSCAASGFTFSNAWMHWVRQAPGKGLEWVAQIKAKSNNYATYYAESVKGRFTISRDDSKNSLYLQMNSLKTEDTAVYYCRYVHYGAYYGVDAWGQGTTVTVSSASTKGPSVFPLAPSSKSTSGGTAALGCLVKDYFPEPVTVSWNSGALTSGVHTFPAVLQSSGLYSLSSVVTVPSSSLGTQTYICNVNHKPSNTKVDKKVEPKSCDKTHTCPPCPAPEAAGGPSVFLFPPKPKDTLMISRTPEVTCVVVDVSHEDPEVKFNWYVDGVEVHNAKTKPREEQYASTYRVVSVLTVLHQDWLNGKEYKCKVSNKALPAPIEKTISKAKGQPREPQVYTLPPSRCELTKNQVSLSCAVKGFYPSDIAVEWESNGQPENNYKTTPPVLDSDGSFFLVSKLTVDKSRWQQGNVFSCSVMHEALHNHYTQKSLSLSPDYKDDDDK EPKSSDKTHTCPPCPAPELLGGPSVFLFPPKPKDTLMISRTPEVTCVVVDVSHEDPEVKFNWYVDGVEVHNAKTKPREEQYNSTYRVVSVLTVLHQDWLNGKEYKCKVSNKALPAPIEKTISKAKGQPREPQVCTLPPSRDELTKNQVSLWCLVKGFYPSDIAVEWESNGQPENNYKTTPPVLDSDGSFFLYSKLTVDKSRWQQGNVFSCSVMHEALHNRYTQKSLSLSP light: DIVMTQSPLSLPVTPGEPASISCRSSQSLVHSFRNTYLHWYQQKPGQAPRLLIYKVSNRFSGVPDRFSGSGSGTDFTLKISRVEAEDVGVYYCGQGTQVPYTFGQGTKLEIKRTVAAPSVFIFPPSDEQLKSGTASVVCLLNNFYPREAKVQWKVDNALQSGNSQESVTEQDSKDSTYSLSSTLTLSKADYEKHKVYACEVTHQGLSSPVTKSFNRGEC	0.46
GLS3000 N28D one-arm antibody (H chain CE115HA000) (antibody, human IgG1, kappa, L234A L235A, N297A, name in Kabat numbering, one-arm antibody) heavy: QVQLVESGGGVVQPGRSLRLSCAASGFTFSNAWMHWVRQAPGKGLEWVAQIKAKSNNYATYYAESVKGRFTISRDDSKNSLYLQMNSLKTEDTAVYYCRYVHYGAYYGVDAWGQGTTVTVSSASTKGPSVFPLAPSSKSTSGGTAALGCLVKDYFPEPVTVSWNSGALTSGVHTFPAVLQSSGLYSLSSVVTVPSSSLGTQTYICNVNHKPSNTKVDKKVEPKSCDKTHTCPPCPAPEAAGGPSVFLFPPKPKDTLMISRTPEVTCVVVDVSHEDPEVKFNWYVDGVEVHNAKTKPREEQYASTYRVVSVLTVLHQDWLNGKEYKCKVSNKALPAPIEKTISKAKGQPREPQVYTLPPSRCELTKNQVSLSCAVKGFYPSDIAVEWESNGQPENNYKTTPPVLDSDGSFFLVSKLTVDKSRWQQGNVFSCSVMHEALHNHYTQKSLSLSPDYKDDDDK EPKSSDKTHTCPPCPAPELLGGPSVFLFPPKPKDTLMISRTPEVTCVVVDVSHEDPEVKFNWYVDGVEVHNAKTKPREEQYNSTYRVVSVLTVLHQDWLNGKEYKCKVSNKALPAPIEKTISKAKGQPREPQVCTLPPSRDELTKNQVSLWCLVKGFYPSDIAVEWESNGQPENNYKTTPPVLDSDGSFFLYSKLTVDKSRWQQGNVFSCSVMHEALHNRYTQKSLSLSP light: DIVMTQSPLSLPVTPGEPASISCRSSQSLVHSDRNTYLHWYQQKPGQAPRLLIYKVSNRFSGVPDRFSGSGSGTDFTLKISRVEAEDVGVYYCGQGTQVPYTFGQGTKLEIKRTVAAPSVFIFPPSDEQLKSGTASVVCLLNNFYPREAKVQWKVDNALQSGNSQESVTEQDSKDSTYSLSSTLTLSKADYEKHKVYACEVTHQGLSSPVTKSFNRGEC	0.19
